No end group written: not given here.
T1: synthetic peptide DATAEEEEDFGEEA corresponding to residues 427-440 of human β-tubulin (Homo sapiens)
T1 construct: also called β-tubulin peptide; source: synthetic peptide (Fmoc chemistry, ABI433A)
T1 chain: DATAEEEEDFGEEA-biotin


How the values were obtained:
[1] = biological target: HER2 fragment V529-P625, C-terminal GSH6 tag (UniProt P04626); experiment: SPR; Biacore T200; biotinylated HER2 fragment V529-P625 immobilised on streptavidin chip (SA); scFv 0.2-5 μM in 50 mM sodium phosphate pH 7.4; triplicate
[2] = biological target: T2, full length human ITGA4 (antigen CD49, α4 subunit of VLA-4 receptor) (Homo sapiens, UniProt P13612); experiment: far-Western, overlay or dot blot; dot blot: 80 ng full length ITGA4 spotted on Immobilon-P; 6 μg/mL scFv in TBS, 1 h, room temperature; detected with HRP-labelled anti-His tag antibody; details: both partners purified
T2 construct: integrin alpha-4 (ITGA4, CD49, α4 subunit of VLA-4), human, full length; also called ITG4A; ITGA4 full length

[3] = biological target: T1, synthetic peptide DATAEEEEDFGEEA …; experiment: SPR; Biacore T200; C-terminally biotinylated β-tubulin peptide immobilised on streptavidin chip (SA); scFv 0.375-12 μM in 50 mM sodium phosphate pH 7.4; details: both partners purified

Row | binding result [2] | Molecule | other results
1 |  | natalizumab framework-trastuzumab CDRs hybrid scFv, expressed with CyDisCo | Kd [1]: 147 nM
2 | binds | natalizumab scFv (IgG4 humanized), expressed without CyDisCo (scFv, V domains shown, VL of natalizumab, as the VL of m5; linker, printed as (Gly4Ser)3; VH of natalizumab, as the VH of m5; expected mass 27755 Da); also called natalizumab - CyDisCo; Tysabri scFv; source: E. coli BW25113 cytoplasm, without CyDisCo (control vector pAG82), purified (IMAC, desalted); not shown: GSH6, C-terminal, kept) VH: QVQLVQSGAEVKKPGASVKVSCKASGFNIKDTYIHWVRQAPGQRLEWMGRIDPANGYTKYDPKFQGRVTITADTSASTAYMELSSLRSEDEAVYYCAREGYYGNYGVYAMDYWGQGTLVTVSS VL: DIQMTQSPSSLSASVGDRVTITCKTSQDINKYMAWYQQTPGKAPRLLIHYTSALQPGIPSRFSGSGSGRDYTFTISSLQPEDIATYYCLQYDNLWTFGQGTKVEIK | 
3 | binds | natalizumab scFv (IgG4 humanized), expressed with CyDisCo (scFv, V domains shown, VL of natalizumab; linker, printed as (Gly4Ser)3; VH of natalizumab; expected mass 27751 Da); also called natalizumab-natalizumab; Tysabri scFv; source: E. coli BW25113 cytoplasm, co-expressed with CyDisCo (Erv1p and PDI), purified (IMAC, desalted); not shown: GSH6, C-terminal, kept) VH: QVQLVQSGAEVKKPGASVKVSCKASGFNIKDTYIHWVRQAPGQRLEWMGRIDPANGYTKYDPKFQGRVTITADTSASTAYMELSSLRSEDEAVYYCAREGYYGNYGVYAMDYWGQGTLVTVSS VL: DIQMTQSPSSLSASVGDRVTITCKTSQDINKYMAWYQQTPGKAPRLLIHYTSALQPGIPSRFSGSGSGRDYTFTISSLQPEDIATYYCLQYDNLWTFGQGTKVEIK | 
4 |  | IgA1 scFv (human), expressed with CyDisCo (scFv, V domains shown, VL of the anti-beta-tubulin IgA1; linker, printed as (Gly4Ser)3; VH of the anti-beta-tubulin IgA1; Expected mass 27342 Da with disulfide bonds; also called IgA1-IgA1; parental scFv IgA1; source: E. coli BW25113 cytoplasm, co-expressed with CyDisCo (Erv1p and PDI), purified (IMAC, desalted)) VH: EVQLVESGGGLVQPGGSLKLSCAASGFTLSGSNVHWVRQASGKGLEWVGRIKRNAESDATAYAASMRGRLTISRDDSKNTAFLQMNSLKSDDTAMYYCVIRGDVYNRQWGQGTLVTVSS VL: DIVMTQSPLSLSVTPGEPASISCRSSQSLLRRDGHNDLEWYLQKPGQSPQPLIYLGSTRASGVPDRFSGSGSGTDFTLKIIRVEAEDAGTYYCMQNKQTPLTFGQGTRLEIK | Kd [3]: 3560 nM

Source: article PMC5734687 (PLoS ONE, 2017)
